Assay results published in patent publication US20260001928A1 (CORTERIA PHARMACEUTICALS, priority 2022, published 2026).
*1 amine or outer side, *2 acyl side, *3 side chain or, on linkers, in order; H or OH if unused. Where no end group is shown, it is not given here. Side-chain parts run from the residue outwards. [ ]: non-standard residue; d: D form. The star is where a group is joined. C18 diacid = O=C(O)CCCCCCCCCCCCCCCCC(=O)*; C16 diacid = O=C(O)CCCCCCCCCCCCCCC(=O)*; γGlu = O=C(O)[C@H](CCC(=O)[*:2])N[*:1]; AEEA = NCCOCCOCC(=O)O

What was measured:
CRF1R receptor = target: T1, CRF1R receptor (UniProt P34998 24-415, limits assumed); assay: cell-based or functional assay
T1 sequence (looked up): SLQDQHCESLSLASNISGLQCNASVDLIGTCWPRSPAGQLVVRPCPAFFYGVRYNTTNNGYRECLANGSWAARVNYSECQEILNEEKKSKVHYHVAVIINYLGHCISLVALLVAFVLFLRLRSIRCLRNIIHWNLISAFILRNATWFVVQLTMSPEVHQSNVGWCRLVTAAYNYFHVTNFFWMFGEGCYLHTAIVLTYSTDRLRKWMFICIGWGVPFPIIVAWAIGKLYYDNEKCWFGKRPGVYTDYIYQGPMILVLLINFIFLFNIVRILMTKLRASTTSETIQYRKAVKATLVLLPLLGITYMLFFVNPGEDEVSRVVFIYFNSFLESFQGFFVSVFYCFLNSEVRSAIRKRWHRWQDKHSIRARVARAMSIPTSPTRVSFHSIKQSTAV

[1] = target: human corticotropin-releasing factor 2a (CRF2a receptor) (human), Q13324; assay: cell-based or functional assay
Chain of human corticotropin-releasing factor 2a (CRF2a receptor) (human), Q13324 (Q13324 20-411): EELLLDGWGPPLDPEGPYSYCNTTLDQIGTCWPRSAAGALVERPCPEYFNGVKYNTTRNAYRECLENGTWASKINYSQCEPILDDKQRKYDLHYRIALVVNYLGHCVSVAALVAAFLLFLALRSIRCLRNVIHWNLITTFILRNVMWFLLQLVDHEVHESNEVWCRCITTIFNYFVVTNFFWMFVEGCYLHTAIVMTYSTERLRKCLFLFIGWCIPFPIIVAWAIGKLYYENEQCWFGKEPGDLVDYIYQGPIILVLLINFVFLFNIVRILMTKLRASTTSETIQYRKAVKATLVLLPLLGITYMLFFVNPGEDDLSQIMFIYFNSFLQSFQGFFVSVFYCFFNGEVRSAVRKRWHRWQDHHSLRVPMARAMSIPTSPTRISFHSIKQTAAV

EC50 (CRF1R receptor)	Emax (% I) (CRF1R receptor)	EC50 [nM] (cAMP) [1]	Binder
> 250 nM	4%	0.44 nM	IVLSLDVPIKLK([AEEA-AEEA-γGlu-C18 diacid])KILLEQEKQKKQREQAETNKQILAQV-NH2 (not fully specified (residue 7); printed as IVLSLDVPIKLK*KILLEQEKQKKQREQAETNKQILAQV-NH2) [SEQ ID NO 149]
		0.12 nM	H-IVLSLD[dV]PIKLK([γGlu-C16 diacid])QILLKQERQKKQREQAEKNKQILEQV-NH2 (SMILES CC[C@H](C)[C@H](N)C(=O)N[C@H](C(=O)N[C@@H](CC(C)C)C(=O)N[C@@H](CO)C(=O)N[C@@H](CC(C)C)C(=O)N[C@@H](CC(=O)O)C(=O)N[C@@H](C(=O)N1CCC[C@H]1C(=O)N[C@H](C(=O)N[C@@H](CCCCN)C(=O)N[C@@H](CC(C)C)C(=O)N[C@@H](CCCCNC(=O)CC[C@H](NC(=O)CCCCCCCCCCCCCCC(=O)O)C(=O)O)C(=O)N[C@@H](CCC(N)=O)C(=O)N[C@H](C(=O)N[C@@H](CC(C)C)C(=O)N[C@@H](CC(C)C)C(=O)N[C@@H](CCCCN)C(=O)N[C@@H](CCC(N)=O)C(=O)N[C@@H](CCC(=O)O)C(=O)N[C@@H](CCCNC(=N)N)C(=O)N[C@@H](CCC(N)=O)C(=O)N[C@@H](CCCCN)C(=O)N[C@@H](CCCCN)C(=O)N[C@@H](CCC(N)=O)C(=O)N[C@@H](CCCNC(=N)N)C(=O)N[C@@H](CCC(=O)O)C(=O)N[C@@H](CCC(N)=O)C(=O)N[C@@H](C)C(=O)N[C@@H](CCC(=O)O)C(=O)N[C@@H](CCCCN)C(=O)N[C@@H](CC(N)=O)C(=O)N[C@@H](CCCCN)C(=O)N[C@@H](CCC(N)=O)C(=O)N[C@H](C(=O)N[C@@H](CC(C)C)C(=O)N[C@@H](CCC(=O)O)C(=O)N[C@@H](CCC(N)=O)C(=O)N[C@H](C(N)=O)C(C)C)[C@@H](C)CC)[C@@H](C)CC)[C@@H](C)CC)C(C)C)C(C)C) [SEQ ID NO 151]
		0.18 nM	H-IVLSLD[dV]PIKLK([γGlu-γGlu-C16 diacid])QILLKQERQKKQREQAEKNKQILEQV-NH2 (SMILES CC[C@H](C)[C@H](N)C(=O)N[C@H](C(=O)N[C@@H](CC(C)C)C(=O)N[C@@H](CO)C(=O)N[C@@H](CC(C)C)C(=O)N[C@@H](CC(=O)O)C(=O)N[C@@H](C(=O)N1CCC[C@H]1C(=O)N[C@H](C(=O)N[C@@H](CCCCN)C(=O)N[C@@H](CC(C)C)C(=O)N[C@@H](CCCCNC(=O)CC[C@H](NC(=O)CC[C@H](NC(=O)CCCCCCCCCCCCCCC(=O)O)C(=O)O)C(=O)O)C(=O)N[C@@H](CCC(N)=O)C(=O)N[C@H](C(=O)N[C@@H](CC(C)C)C(=O)N[C@@H](CC(C)C)C(=O)N[C@@H](CCCCN)C(=O)N[C@@H](CCC(N)=O)C(=O)N[C@@H](CCC(=O)O)C(=O)N[C@@H](CCCNC(=N)N)C(=O)N[C@@H](CCC(N)=O)C(=O)N[C@@H](CCCCN)C(=O)N[C@@H](CCCCN)C(=O)N[C@@H](CCC(N)=O)C(=O)N[C@@H](CCCNC(=N)N)C(=O)N[C@@H](CCC(=O)O)C(=O)N[C@@H](CCC(N)=O)C(=O)N[C@@H](C)C(=O)N[C@@H](CCC(=O)O)C(=O)N[C@@H](CCCCN)C(=O)N[C@@H](CC(N)=O)C(=O)N[C@@H](CCCCN)C(=O)N[C@@H](CCC(N)=O)C(=O)N[C@H](C(=O)N[C@@H](CC(C)C)C(=O)N[C@@H](CCC(=O)O)C(=O)N[C@@H](CCC(N)=O)C(=O)N[C@H](C(N)=O)C(C)C)[C@@H](C)CC)[C@@H](C)CC)[C@@H](C)CC)C(C)C)C(C)C) [SEQ ID NO 147]
